The source of these data is patent US7767415B2, “Compositions and methods for modifying blood cell carbohydrates” (Velico Medical, Inc., priority 2001, dated 2010).

The test system of series [1] is Recombinant chicken liver α-N-acetylgalactosaminidase. Conditions: apparent; pH 3.65, 37° C.; Zhu et al. 1996; cited from earlier work.
The subject of series [2] is E. coli expressed recombinant α-N-acetylgalactosaminidase (New England BioLabs, catalog no. P0734B, proprietary strain). The series can be described thus: Apparent Km and Vmax with monosaccharide derivative (p-nitrophenol at 405 nm, Lineweaver-Burk), Table XI. Format: biochemical. As to conditions: pH 7.0, 37° C. As for the experimental part: Commercial Recombinant α-N-Acetylgalactosaminidase (New England Biolabs): • vii) 0.5 mM as a starting concentration of αGalNAc p-nitrophenyl monosaccharide derivative in a tube containing 0.05 M Sodium phosphate buffer pH 7.0 was sequentially diluted 2 fold by mixing it with an equal volume of buffer. […] of enzyme was added to each tube and incubated for 10 min at 37° C. The reaction was quenched by adding an equal volume of 0.2 M sodium borate buffer (pH 9.8). The amount of the liberated p-nitrophenol was determined by measuring the absorbance at 405 nm.

The subject of series [3] is R. torgues (Ruminococcus torques) α-N-acetylgalactosaminidase, isolated to apparent homogeneity. Conditions: Hoskins et al. 1997; cited from earlier work.
Series [4] relates to Recombinant coffee bean (Coffea canephora) α-galactosidase. As to conditions: apparent; pH 5.5, 26° C.; Zhu et al. 1995; cited from earlier work.
Series [5] deals with E. coli expressed recombinant α-N-acetylgalactosaminidase (New England BioLabs, catalog no. P0734B, proprietary strain). As to the kind of experiment: Preliminary Km with tetrasaccharide AMC substrate (densitometric scans of substrate/product ratio). As to conditions: assay unreliable at low concentrations, Km possibly even lower than 20 μM, read-out: Km for the blood group A oligosaccharide substrates. The series is classed as biochemical. From the text:
(§1) The assay used for this determination involved densitometric scans of the substrate/product ratio using the tetrasaccharide AMC substrate (GalNAcα1-3(Fucα1-2)Galβ1-4GalNAc-AMC).

Series [6] can be described thus: Activity with repetitive A heptasaccharide AMC substrate (HPTLC). The series is classed as biochemical. The procedure:
FIG. 5b is an HPTLC analysis of five selected Streptomycete α-N-acetylgalactosaminidase activities with the blood group A tetrasaccharide (Panel B-1) and A heptasaccharide AMC (Panel B-2) substrate. Streptomycete strains identified by numbers as in Table VII. […] Reactions were incubated 180 min at 30° C., and 2.5 μl of the reaction mixture was spotted onto HPTLC and developed in CHCl3:methanol:H2O (60:35:8) and photographed. Migration of trisaccharide (H), and tetrasaccharide (A), heptasaccharide and hexasaccharide (H-A) AMC derivatives is indicated by arrows. NE, no enzyme control; rCHl-Az, recombinant Chicken liver A-zyme; Origin, sample application position. The appearance of a disaccharide AMC is due to contaminating α-fucosidase activity.
Aliquots of 2.5-3.0 μl were taken at different time points (0′, 15′, 30′, 60′) to follow product development. Product development was analyzed by HPTLC in chloroform-methanol-water (vol/vol/vol: 60/35/8) and visualized by UV or orcinol staining.

The conditions of series [7]: cited from earlier work; for Specific activity with GalNAcα1-pNP: pH 3.65 (optimal pH).
The next series deals with A2 red blood cells. As to the kind of experiment: Enzymatic conversion of A2 red blood cells, hemagglutination typing. As to conditions: A2 donors; chicken enzyme 100-200 U/ml, protocols A-C (pH 7.4 or 5.5, 30-37° C., 180 min to 4 hours). Format: cell-based, human. From the text:
(§2) It is evident from the data in Table XII that apparent removal of A antigens is achieved, when defined by one particular anti-blood group A specific monoclonal antibody that is not approved for blood typing procedures (DAKO). A large number of such antibodies exist and, due to specificity and low affinity binding, they are inappropriate for serological typing purposes. Development of monoclonal cocktails for ABO routine typing to substitute previously used polyclonal antibody reagents was a major achievement for the blood bank industry in 1990s. […] Details of the typing assay used in this example is as follows: • Approved typing reagents used in hemagglutination assays were murine monoclonal antibodies and plant lectins obtained from Ortho Clinical Diagnostics, Raritan, N.J.; Gamma Biologicals/Immucor, Norcross, Ga. Non-approved reagents included murine monoclonal anti-A antibody from Dako and a panel of monoclonal antibodies to blood group A variants produced by H. Clausen (Clausen et al., Proc. Natl. Acad. Sci. USA 82(4): 1199-203, 1985, Clausen et al., J Biol Chem. 261(3): 1380-7, 1986, Clausen et al., Biochemistry 25(22): 7075-85, 1986, Clausen et al., J Biol Chem. 262(29): 14228-34, 1987). Typing reagents were used according to the manufacturers recommendations and other monoclonal antibodies as determined by titrations. Hemagglutination Assay (Room Temperature) 1. […]

Series [8] in a line: Activity with blood group A tetrasaccharide AMC substrate (HPTLC). Format: biochemical. As for the experimental part:
FIG. 10 illustrates the activity of E. coli expressed α-N-acetylgalactosaminidase with the blood group A tetrasaccharide AMC substrate at different pH. Assays were performed in reactions of 10 μl containing 1 nmole of α-tetra, 0.05 μg enzyme, and the buffer Na Citrate-NaPO4 at varying pH 2.6-8.0. Reactions were incubated 40 min at 26° C., and 3 μl samples analyzed by HPTLC. Panel A: HPTLC analysis; Panel B: Substrate cleavage quantified by scanning and plotted against pH.
Assays with Derivatized oligosaccharide substrates (AMC, OGr) were performed by the following procedure: • iii) One (AMC) or 5 (OGr) nmol substrate in reaction mixtures of a total volume of 10 μl containing 50 mM sodium citrate (pH 6.0) was incubated at 26° C. Aliquots of 2.5-3.0 μl were taken at different time points (0′, 15′, 30′, 60′) to follow product development. Product development was analyzed by HPTLC in chloroform-methanol-water (vol/vol/vol: 60/35/8) and visualized by UV or orcinol staining. […]
as §1

The next series deals with A1 red blood cells. As to the kind of experiment: Enzymatic conversion of A1 red blood cells, hemagglutination typing. The series is classed as cell-based, human. Conditions: A1 donors; chicken enzyme 200 U/ml, 50% hematocrit, 37° C., 4 hours (protocols B, C).
Text: as §2

A short description of series [9]: Activity with blood group A tetrasaccharide AMC substrate (HPTLC). Format: biochemical. Conditions: for difference of specific activity, GalNAcα1-pNP versus A tetrasaccharide substrate: pH 3.65; for Specific activity with blood group A tetrasaccharide-AMC: pH 5.5.
The conditions of series [10]: Dean and Sweeley 1979; cited from earlier work.
[11] abbreviates: listed as chicken α-N-acetylgalactosaminidase.
[12] abbreviates: listed as recombinant chicken α-N-acetylgalactosaminidase.

Read-outs that look alike come from different tables or passages of the source.

On to `CC(=O)N[C@H]1[C@@H](Oc2ccc([N+](=O)[O-])cc2)O[C@H](CO)[C@H](O)[C@@H]1O` [GalNAcα1-pNP, p-nitrophenyl-α-D-N-acetylgalactosaminopyranoside], for which the Km is 827 µM in series [1], 10 to 50 µM in series [2] and 2000 to 8000 µM in [3]. For the same molecule, the Vmax is on record as 60.9 U/mg^3 in series [1] and 3.3 U/mg^3 in series [2].

Consider `O=[N+]([O-])c1ccc(O[C@H]2O[C@H](CO)[C@H](O)[C@H](O)[C@H]2O)cc1` [Galα1-pNP, p-nitrophenyl α-galactoside], for which, in series [4], the Michaelis constant (Km) is 363 µM and the Vmax is 46.9 U/mg^1.

For the molecule GalNAcα1-3(Fucα1-2)Galβ1-4GalNAc-AMC, the Km in series [5] was about 20 µM.

B1: Recombinant Chicken Liver α-N-acetylgalactosaminidase: Chicken liver α-N-acetylgalactosaminidase, recombinant, expressed in P. pastoris; prior-art enzyme for A cell conversion (protein, UniProt Q90744 1-405, looked up)
Alpha-N-acetylgalactosaminidas …: LENGLARTPPMGWLAWERFRCNVNCREDPRQCISEMLFMEMADRIAEDGWRELGYKYINIDDCWAAKQRDAEGRLVPDPERFPRGIKALADYVHARGLKLDIYGDLGRLTCGGYPGTTLDRVEQDAQTFAEWGVDMLKLDGCYSSGKEQAQGYPQMARALNSTGRPIVYSCSWPAYQGGLPPKVNYTLLGEICNLWRNYDDIQDSWDSVLSIVDWFFTNQDVLQPFAGPGHWNDPDMLIIGNFGLSYEQSRSQMALWTIMAAPLLMSTDLRTISPSAKKILQNRLMIQINQDPLGIQGRRIIKEGSHIEVFLRPLSQAASALVFFSRRTDMPFRYTTSLAKLGFPMGAAYEVQDVYSGKIISGLKTGDNFTVIINPSGVVMWYLCPKALLIQQQAPGGPSRLPLL
B1: the figures for the “Specific activity with repetitive A heptasaccharide-AMC” value in [6] (pH 3.65) and in series [6] (pH 5.5) were 0.5 U/mg and 0.4 U/mg, respectively. The “specific activity with repetitive A type 3 AMC derivative (structure 6)” value in series [6] (pH not stated) is “approximately 0.3 U/mg”. For the same molecule, the “specific activity using p-nitrophenyl αGalNAc as substrate” value in series [7] (literature values, pH not stated) is reported as 51-56 U/mg. Further, the figures for the “Specific activity with GalNAcα1-pNP” value in series [7], in series [7] (setting [11]) and in [7] (setting [12]) were 50 U/mg^3, “approximately 50 U/mg” and “approximately 50 U/mg”, respectively. The “Agglutination, Dolichos biflorus, post enzyme treatment” value with A2 red blood cells and with A1 red blood cells was 0 in each case. Moreover, the “pH optimum with the blood group A tetrasaccharide AMC substrate” value in series [8] (not shown) is listed as 3.5-4.5. The “Specific activity with blood group A tetrasaccharide-AMC” value is listed as 0.5 U/mg in series [8] (pH 3.65); 0.3 U/mg in series [8] (pH 3.65, listed as chicken α-N-acetylgalactosaminidase); 0.3 U/mg in series [8] (pH 3.65, listed as recombinant chicken α-N-acetylgalactosaminidase); 0.4 U/mg in series [8] (pH 5.5); 0.2 U/mg in series [9] (setting [11]); 0.2 U/mg in series [9] (setting [12]). In addition, the “specific activity with A type 2 tetrasaccharide AMC derivative (structure 3)” value in [8] (pH not stated) is listed as “approximately 0.3 U/mg”. The entries for the “difference of specific activity, GalNAcα1-pNP versus A tetrasaccharide substrate” value in series [9] (setting [11]) and in series [9] (setting [12]) were “over 100 fold” and 166 fold, respectively.

B2: human α-N-acetylgalactosaminidase: human α-N-acetylgalactosaminidase (alpha-galactosidase B), isolated, cloned and expressed (protein, UniProt P17050 18-411, looked up)
Alpha-N-acetylgalactosaminidas …: LDNGLLQTPPMGWLAWERFRCNINCDEDPKNCISEQLFMEMADRMAQDGWRDMGYTYLNIDDCWIGGRDASGRLMPDPKRFPHGIPFLADYVHSLGLKLGIYADMGNFTCMGYPGTTLDKVVQDAQTFAEWKVDMLKLDGCFSTPEERAQGYPKMAAALNATGRPIAFSCSWPAYEGGLPPRVNYSLLADICNLWRNYDDIQDSWWSVLSILNWFVEHQDILQPVAGPGHWNDPDMLLIGNFGLSLEQSRAQMALWTVLAAPLLMSTDLRTISAQNMDILQNPLMIKINQDPLGIQGRRIHKEKSLIEVYMRPLSNKASALVFFSCRTDMPYRYHSSLGQLNFTGSVIYEAQDVYSGDIISGLRDETNFTVIINPSGVVMWYLYPIKNLEMSQQ
For B2, in [10], the pH optimum was 3.5.
